Source: the supplement of paper PMC10567573

B1: EPB41L3 (parent)
chain: FRFAPNHTKELEDKVIELHKSHRG

Variants of: B1
Experiment: protein stability index of a GFP-peptide fusion (GPS, HEK-293T) (PSI 1-6); higher = more stable
Conditions: c terminus: a fixed tail appended
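Note: lentivirally expressed fusions sorted by FACS into six bins by GFP to DsRed ratio, PSI derived from sequencing read proportions per bin multiplied by bin number.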

Variant	protein stability index
D13Q	3.39
D13T	1.67
D13A	1.82
D13S	2.14
D13F	1.52
D13K	1.86
D13V	1
D13H	1.89
D13L	2.2
D13P	1.78
D13E	2.8
D13N	2.79
D13I	2.9
D13R	2.77
D13M	1.9
D13G	3.4
D13C	2.65
D13Y	1.95
T8V	1.98
T8L	1.82
T8K	2.39
T8R	1.92
T8Y	2.05
T8D	2.01

Variant	protein stability index
T8P	1.75
T8W	1.84
T8E	2.78
T8C	2.02
T8G	1.86
T8N	2.17
T8I	2.49
T8S	1.92
T8A	2.11
T8F	2.3
T8H	1.74
T8M	2.21
N6C	1.97
N6R	2.03
N6M	1.83
N6H	2.54
N6S	2.17
N6P	2.23
N6D	2
N6F	1.74
N6E	3.17
N6I	1.55
N6K	1.92
N6V	1.53

Variant	protein stability index
N6Q	2.02
N6T	2.08
N6G	2.56
N6L	2.37
H19P	2.72
H19G	1.88
H19R	2.19
H19Q	2.66
H19V	1.89
H19T	1.81
H19I	1.83
H19A	2.11
H19D	2.07
H19E	2.72
H19S	2.11
H19C	2.03
H19L	2.12
H19K	1.99
H19Y	1.88
H19M	2.05
H19F	1.95
H19W	1.53
A4N	3.77
A4V	1.82

Variant	protein stability index
A4K	3.06
A4T	2.24
A4F	3.19
A4C	2.2
A4M	2.65
A4Q	2.18
A4I	2.24
A4E	2.87
A4D	3.9
A4H	2.42
A4R	3.33
A4S	3.9
A4Y	2.88
A4P	2.98
A4L	2.82
A4G	3.08
A4W	2.41
K14Y	2.44
K14S	1.97
K14T	2.31
K14C	1.89
K14F	1.8
K14W	1.96
K14N	2.25

Variant	protein stability index
K14Q	1.56
K14H	2.74
K14A	2.34
K14V	2.2
K14M	2.01
K14R	1.97
K14P	1.86
K14L	1.78
K14I	2.66
K14E	2.53
K14D	2.32
K14G	2.48
F3Y	2.28
F3T	3.99
F3W	2.97
F3V	4.42
P5Y	1.24
P5A	2.73
P5N	2.24
P5E	3.49
P5F	1.24
P5Q	2.07
P5G	1.98
P5I	2.63

Variant	protein stability index
P5M	2.31
P5D	3.38
P5L	2.75
P5H	2.31
P5R	2.15
P5V	2.37
P5T	2.44
P5S	1.92
P5K	3.47
P5C	2.4
V15F	2.46
V15W	1.93
V15L	2.69
V15I	2.75
V15M	2.87
V15Y	1.99
V15K	2.19
V15Q	2.54
V15E	2.23
V15S	2.44
V15G	2.55
V15T	2.47
V15C	2.24
V15N	2.27

Variant	protein stability index
V15D	2.92
V15A	2.38
V15H	2.38
V15P	2.33
V15R	1.95
S21Q	2.59
S21I	2.25
S21C	1.78
S21H	1.71
S21G	2.42
S21M	2.14
S21R	2.1
S21K	1.74
S21N	2.88
S21D	2.56
S21F	1.78
S21A	2.47
S21E	2.9
S21L	1.83
S21T	2.47
K20Q	1.29
K20C	2.09
K20V	2.71
K20S	1.67

Variant	protein stability index
K20R	1.39
K20E	2.84
K20F	1.55
K20T	2.12
K20M	1.81
K20W	1.54
K20H	2.44
K20A	2.29
K20Y	2.95
K20L	2.81
K20G	2.22
K20N	2.57
K20I	2.12
K20D	1.96
K20P	2.64
E17W	2.18
E17H	2.04
E17N	2.29
E17Y	2.66
E17T	1.86
E17A	1.74
E17L	1.67
E17Q	1.55
E17G	1.76

Variant	protein stability index
E17S	2.12
E17V	2.55
E17C	1.95
E17K	1.72
E17M	2.5
E17I	2.21
E17D	2.18
E17P	2.43
E17F	2.34
I16C	2.14
I16V	2.71
I16P	2.76
I16T	2.27
I16A	2.46
I16L	2.01
I16Q	2.12
I16Y	2.43
I16W	2.13
I16F	1.77
I16D	3.22
I16S	2.11
I16E	2.95
I16K	2.1
I16G	1.98

Variant	protein stability index
I16N	2.42
I16H	2.09
I16R	1.81
I16M	2.1
E12K	1.96
E12L	1.97
E12P	2.34
E12S	2.41
E12Q	2.09
E12T	1.36
E12N	1.74
E12A	1.99
E12Y	1.22
E12F	2.17
E12V	1.45
E12H	2.34
E12G	2.33
E12I	1.27
E12W	2.97
E12C	1.83
E12D	1.83
E12M	1.75
E12R	1.56
E10F	1.22

Variant	protein stability index
E10C	1.46
E10H	1.81
E10N	1.41
E10G	2.04
E10K	2.59
E10Y	1.97
E10L	1.9
E10S	2.07
E10M	1.69
E10Q	1.68
E10R	1.95
E10I	2.07
E10D	1.9
E10V	1.73
E10P	1.63
E10W	1.21
E10A	1.97
E10T	1.84
H7T	1.91
H7Y	2.07
H7D	2.96
H7F	1.73
H7I	2.09
H7V	1.85

Variant	protein stability index
H7N	2.16
H7R	2.11
H7Q	2.28
H7G	2.42
H7E	1.96
H7S	1.93
H7M	2.3
H7L	1.62
H7C	1.47
H7P	2.1
H7W	1.6
H7A	2.83
H7K	1.88
L11P	1.87
L11V	2.25
L11M	1.83
L11G	2.89
L11F	2.48
L11C	2.18
L11A	1.54
L11N	1.65
L11S	1.72
L11H	2.29
L11K	2.53

Variant	protein stability index
L11Y	2.05
L11I	2.46
L11E	1.97
L11D	2.53
L11W	1.99
L11R	1.92
L11Q	2.25
L11T	2.21
L18A	3.07
L18K	2.6
L18P	1.89
L18R	2.75
L18D	3.17
L18N	2.01
L18Q	2.53
L18M	3.06
L18V	1.93
L18F	1.73
L18I	2.35
L18Y	1.36
L18C	2.9
L18W	1.78
L18T	3.79
L18G	2.02

Variant	protein stability index
L18E	2.43
L18H	1.82
L18S	2.51
K9Y	1.99
K9E	2.21
K9D	1.82
K9F	2.14
K9S	2.88
K9R	1.7
K9N	2.39
K9P	2.15
K9W	2.34
K9H	2.06
K9A	1.71
K9T	1.37
K9M	1.77
K9G	2.04
K9Q	2.11
K9L	1.47
K9C	2.44
K9I	2.56
K9V	2.24
